{"source": "paper PMC8515915", "about": "(Genome Medicine, 2021)", "binders": {"B1": {"name": "CB6 (antibody, V domains shown)", "VH": "EVQLVESGGGLVQPGGSLRLSCAASGFTVSSNYMSWVRQAPGKGLEWVSVIYSGGSTFYADSVKGRFTISRDNSMNTLFLQMNSLRAEDTAVYYCARVLPMYGDYLDYWGQGTLVTVSS", "VL": "not shown", "notes": "source: ExpiCHO, heavy and light chain plasmids cotransfected, purified (Protein A)"}}, "target": "T1, SARS-CoV-2 RBD wildtype, soluble fragment 319-591 with C-terminal 8 × His tag (SARS-CoV-2, UniProt P0DTC2)", "T1 construct": "source: ExpiCHO-S, transient, purified (His Trap Excel)", "assay": "BLI", "conditions": "both partners purified", "data": [{"binder": "B1", "values": [{"measurement": "Kd", "result": 10.7, "unit": "nM"}]}]}
